# Test system: T1, piggyBac transposase (Trichoplusia ni)
# T1 sequence: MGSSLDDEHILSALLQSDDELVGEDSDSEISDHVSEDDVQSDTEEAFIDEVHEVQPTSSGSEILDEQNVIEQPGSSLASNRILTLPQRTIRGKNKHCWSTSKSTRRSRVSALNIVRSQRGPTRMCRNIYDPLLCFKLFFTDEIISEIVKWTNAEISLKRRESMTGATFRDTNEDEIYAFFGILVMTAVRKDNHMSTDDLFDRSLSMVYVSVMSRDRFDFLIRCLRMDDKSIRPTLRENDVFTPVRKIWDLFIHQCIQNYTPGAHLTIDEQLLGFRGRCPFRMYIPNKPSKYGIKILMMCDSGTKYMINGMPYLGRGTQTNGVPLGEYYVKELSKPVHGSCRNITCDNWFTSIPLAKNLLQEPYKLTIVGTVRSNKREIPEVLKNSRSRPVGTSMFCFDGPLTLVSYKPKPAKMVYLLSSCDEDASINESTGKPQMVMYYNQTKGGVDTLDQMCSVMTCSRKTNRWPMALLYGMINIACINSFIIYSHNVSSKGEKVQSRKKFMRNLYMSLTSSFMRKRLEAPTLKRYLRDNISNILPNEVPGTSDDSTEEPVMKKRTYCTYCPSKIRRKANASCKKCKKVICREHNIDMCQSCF
# Assay: cell_activity
# Conditions: RFP+ HEK-293 at 28 days
sequence,measurement,value
CCCTAGAAAGATAGTCTGCGTAAAATTGACGCATGCATGCGTCAATTTTACGCATGATTATCTTTAACGTACGTCACAATATGATTATCTTTCTAGGG (double strand),activity,0.72%

# From patent US20180195086
